System: T1, PrpR (His6-PrpR) (Pseudomonas aeruginosa PAO1?), ORF:9118ca87
T1 sequence: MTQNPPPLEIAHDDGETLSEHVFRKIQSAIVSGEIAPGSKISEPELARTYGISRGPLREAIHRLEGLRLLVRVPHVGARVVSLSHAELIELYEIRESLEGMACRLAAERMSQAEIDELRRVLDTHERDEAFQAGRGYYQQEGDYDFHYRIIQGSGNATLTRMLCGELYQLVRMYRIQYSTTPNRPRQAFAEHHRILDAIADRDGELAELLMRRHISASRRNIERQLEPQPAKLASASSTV
Assay: EMSA
Details: 30 mM Tris-HCl pH 8.0, 120 mM KCl, 1 mM MnCl2, 1 mM MgCl2, 20% glycerol, 240 ug/mL BSA, 15.2 ug/mL poly(dI-dC), 21 C, 60 min; 6% PAGE in TBE

CTGCTTCATCACGTCGCCCATGCCGCAGGCGAAGTCGATCAGGCGCGGCAACACGTAACGGTCATAGATGCCCACGAAACTCTCTCCTGGCACAGCGGCTGGAGGGGAAAGCATAGACCAGCGATGCATTAGACGATTGTCGACAATCAAGCGACGAATGATTGACCCCACGCAATCCAGGCGGTAGCTTTCGCAAACATTGTCGACACATCGACCCGGACAGCCAGTACCATGACCCAGAACCCGCCCCCTCTCGAGATTGCCCATGAC (double strand) [prpR promoter (prpRp)]
binding: binds
